Data taken from patent US11673916B2, “Neuroprotective peptides and methods of their use” (University of Pittsburgh—Of the Commonwealth System of …, priority 2020, dated 2023).

Target: T1, Kv2.1-VAPA association (Rattus norvegicus, UniProt P15387+Q9Z270)
T1 construct: endogenous in cells; host or cells: primary rat cortical neurons (untransfected, fixed and immunolabelled)
T1 sequence (P15387 1-857): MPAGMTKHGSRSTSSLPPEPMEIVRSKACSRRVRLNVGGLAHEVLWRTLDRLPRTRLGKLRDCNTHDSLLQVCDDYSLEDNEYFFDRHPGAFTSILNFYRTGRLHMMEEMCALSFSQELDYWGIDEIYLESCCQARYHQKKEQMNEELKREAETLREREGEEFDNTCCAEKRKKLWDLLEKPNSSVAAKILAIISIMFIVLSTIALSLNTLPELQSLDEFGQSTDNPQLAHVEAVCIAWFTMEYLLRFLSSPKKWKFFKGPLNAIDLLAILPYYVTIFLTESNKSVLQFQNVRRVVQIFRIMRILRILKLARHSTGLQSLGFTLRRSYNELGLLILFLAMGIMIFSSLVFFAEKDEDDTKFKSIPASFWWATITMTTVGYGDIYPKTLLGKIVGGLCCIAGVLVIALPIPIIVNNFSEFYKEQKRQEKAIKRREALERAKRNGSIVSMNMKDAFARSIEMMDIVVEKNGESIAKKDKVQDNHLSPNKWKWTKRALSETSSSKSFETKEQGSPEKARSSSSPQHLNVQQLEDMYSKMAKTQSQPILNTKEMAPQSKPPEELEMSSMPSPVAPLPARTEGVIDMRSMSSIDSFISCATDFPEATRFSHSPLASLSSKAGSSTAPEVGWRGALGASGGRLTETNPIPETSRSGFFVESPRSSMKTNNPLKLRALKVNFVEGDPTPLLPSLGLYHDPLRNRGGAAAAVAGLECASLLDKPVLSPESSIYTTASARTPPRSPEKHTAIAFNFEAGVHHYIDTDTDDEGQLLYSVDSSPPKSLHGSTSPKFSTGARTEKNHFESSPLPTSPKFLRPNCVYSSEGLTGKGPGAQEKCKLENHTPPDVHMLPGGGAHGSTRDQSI
T1 sequence (Q9Z270 2-249 limits assumed): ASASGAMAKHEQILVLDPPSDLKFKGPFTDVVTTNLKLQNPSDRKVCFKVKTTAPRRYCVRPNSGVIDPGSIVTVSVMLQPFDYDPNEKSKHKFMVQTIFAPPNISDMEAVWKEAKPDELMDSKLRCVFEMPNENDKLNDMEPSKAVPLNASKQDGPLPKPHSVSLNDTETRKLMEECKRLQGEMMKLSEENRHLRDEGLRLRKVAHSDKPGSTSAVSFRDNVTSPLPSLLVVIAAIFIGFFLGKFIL
Experiment: Proximity ligation assay (PLA) of Kv2.1-VAPA association in cortical neurons
Type: cell-based
Settings: 10 μM peptide, 2-hour treatment, means+/-SEM (FIG. 3C)
Experimental: Duolink proximity ligation assay (PLA) technology (Sigma-Aldrich, St. Louis, Mo.) was utilized to assess in situ protein-protein interaction between Kv2.1 and vesicle-associated […] protein (VAMP)-associated protein A (VAPA). Primary cortical neurons on glass coverslips were treated in 24-well plates with vehicle (dH2O), TAT-Sc-2 (10 μM), or TAT-DP-2 (10 μM) for 2 hours at 37° C./5% CO2. Neurons were then rinsed with 2 mL ice-cold sterile PBS and then transferred to 1 mL 4% paraformaldehyde (PFA) in PBS for 20 minutes to fix. Coverslips were transferred to 1 mL 0.1 M glycine (in PBS) to quench fixation and rinsed three times in 1 mL PBS. […]
PLA puncta were imaged on a Nikon A1+ confocal microscope (Nikon, Tokyo, Japan) with a 60× objective. […] PLA puncta signals were then obtained by capturing 25 optical sections (0.5 μm) that constrained the entire Z-width of PLA-TRITC fluorescence as MAX-IP files. […] NIS-Elements AR object count feature was then utilized to analyze the quantity of PLA puncta per cell. […] As distinct local PLA puncta-TRITC auto-fluorescence (markedly different in appearance from PLA puncta) was noted, local background subtraction using a small ROI within this region was performed in a protocol similar to that described earlier (Glynn, et al., Nat Protoc. 1: 1287-1296, 2006). […]

Sequence | PLA puncta per square micron of neuronal soma
YGRKKRRQRRRDFSSIST [TAT-Sc-2, TAT-linked scramble control peptide] | 0.10+/−0.06 #PLA puncta/sq. micron of cell soma
YGRKKRRQRRRSIDSFTS [TAT-DP-2, TAT-linked declustering peptide 2] | 0.06+/−0.01 #PLA puncta/sq. micron of cell soma
